Key:
[1] = tested on: Hsp90 complexes in Mia-PaCa-2 cell extract; test: Nano-LC-MS/MS of PU-beads pull-downs; format: binding, human; conditions: protein identified in PU-beads pull-down of Mia-PaCa-2 cell extract; QSTAR-Elite QTof MS
In short: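 Lysates pre-cleared overnight at 4 °C with control beads underwent PU-bead pull-down; bound proteins were SDS-eluted, gel-separated, digested and analyzed by nano-LC-MS/MS on a QTof. Identifications used significance p<0.05, 0.4 Da tolerances and one missed cleavage; unique peptide (spectral) counts and sequence coverage were reported.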

[2] = tested on: Hsp90 complexes in K562 cell extract; test: Nano-LC-MS/MS of PU-beads pull-downs; format: binding; conditions: protein identified in PU-beads pull-down of K562 cell extract, QSTAR-Elite QTof MS
In short: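 Lysates pre-cleared overnight at 4 °C with control beads, then pulled down with PU-beads or control beads; eluted proteins (2% SDS boil) gel-separated and analysed by nano LC-MS/MS on a QTof. Mascot identification (p<0.05), spectral counts and sequence coverage evaluated in Scaffold.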

Molecule	Number of Assigned Spectra, Mia-Paca 2 [1]	Number of Assigned Spectra, K562 Prep 1 [2]	Number of Assigned Spectra, K562 Prep 2 [2]
CSDE1 (protein, UniProt O75534 1-798, looked up) Cold shock domain-containing …: MSFDPNLLHNNGHNGYPNGTSAALRETGVIEKLLTSYGFIQCSERQARLFFHCSQYNGNLQDLKVGDDVEFEVSSDRRTGKPIAVKLVKIKQEILPEERMNGQVVCAVPHNLESKSPAAPGQSPTGSVCYERNGEVFYLTYTPEDVEGNVQLETGDKINFVIDNNKHTGAVSARNIMLLKKKQARCQGVVCAMKEAFGFIERGDVVKEIFFHYSEFKGDLETLQPGDDVEFTIKDRNGKEVATDVRLLPQGTVIFEDISIEHFEGTVTKVIPKVPSKNQNDPLPGRIKVDFVIPKELPFGDKDTKSKVTLLEGDHVRFNISTDRRDKLERATNIEVLSNTFQFTNEAREMGVIAAMRDGFGFIKCVDRDVRMFFHFSEILDGNQLHIADEVEFTVVPDMLSAQRNHAIRIKKLPKGTVSFHSHSDHRFLGTVEKEATFSNPKTTSPNKGKEKEAEDGIIAYDDCGVKLTIAFQAKDVEGSTSPQIGDKVEFSISDKQRPGQQVATCVRLLGRNSNSKRLLGYVATLKDNFGFIETANHDKEIFFHYSEFSGDVDSLELGDMVEYSLSKGKGNKVSAEKVNKTHSVNGITEEADPTIYSGKVIRPLRSVDPTQTEYQGMIEIVEEGDMKGEVYPFGIVGMANKGDCLQKGESVKFQLCVLGQNAQTMAYNITPLRRATVECVKDQFGFINYEVGDSKKLFFHVKEVQDGIELQAGDEVEFSVILNQRTGKCSACNVWRVCEGPKAVAAPRPDRLVNRLKNITLDDASAPRLMVLRQPRGPDNSMGFGAERKIRQAGVID	0	4	0
PTPLAD1 (protein, UniProt Q9P035 1-362, looked up) Very-long-chain …: MENQVLTPHVYWAQRHRELYLRVELSDVQNPAISITENVLHFKAQGHGAKGDNVYEFHLEFLDLVKPEPVYKLTQRQVNITVQKKVSQWWERLTKQEKRPLFLAPDFDRWLDESDAEMELRAKEEERLNKLRLESEGSPETLTNLRKGYLFMYNLVQFLGFSWIFVNLTVRFCILGKESFYDTFHTVADMMYFCQMLAVVETINAAIGVTTSPVLPSLIQLLGRNFILFIIFGTMEEMQNKAVVFFVFYLWSAIEIFRYSFYMLTCIDMDWKVLTWLRYTLWIPLYPLGCLAEAVSVIQSIPIFNETGRFSFTLPYPVKIKVRFSFFLQIYLIMIFLGLYINFRHLYKQRRRRYGQKKKKIH	0	2	0
PLBD1 (protein, UniProt Q6P4A8 39-553, looked up) Phospholipase B-like 1: GVYYATAYWMPAEKTVQVKNVMDKNGDAYGFYNNSVKTTGWGILEIRAGYGSQTLSNEIIMFVAGFLEGYLTAPHMNDHYTNLYPQLITKPSIMDKVQDFMEKQDKWTRKNIKEYKTDSFWRHTGYVMAQIDGLYVGAKKRAILEGTKPMTLFQIQFLNSVGDLLDLIPSLSPTKNGSLKVFKRWDMGHCSALIKVLPGFENILFAHSSWYTYAAMLRIYKHWDFNVIDKDTSSSRLSFSSYPGFLESLDDFYILSSGLILLQTTNSVFNKTLLKQVIPETLLSWQRVRVANMMADSGKRWADIFSKYNSGTYNNQYMVLDLKKVKLNHSLDKGTLYIVEQIPTYVEYSEQTDVLRKGYWPSYNVPFHEKIYNWSGYPLLVQKLGLDYSYDLAPRAKIFRRDQGKVTDTASMKYIMRYNNYKKDPYSRGDPCNTICCREDLNSPNPSPGGCYDTKVADIYLASQYTSYAISGPTVQGGLPVFRWDRFNKTLHQGMPEVYNFDFITMKPILKLDIK	2	0	0
MALT1 (protein, UniProt Q9UDY8 2-824, looked up) Mucosa-associated lymphoid …: SLLGDPLQALPPSAAPTGPLLAPPAGATLNRLREPLLRRLSELLDQAPEGRGWRRLAELAGSRGRLRLSCLDLEQCSLKVLEPEGSPSLCLLKLMGEKGCTVTELSDFLQAMEHTEVLQLLSPPGIKITVNPESKAVLAGQFVKLCCRATGHPFVQYQWFKMNKEIPNGNTSELIFNAVHVKDAGFYVCRVNNNFTFEFSQWSQLDVCDIPESFQRSVDGVSESKLQICVEPTSQKLMPGSTLVLQCVAVGSPIPHYQWFKNELPLTHETKKLYMVPYVDLEHQGTYWCHVYNDRDSQDSKKVEIIIGRTDEAVECTEDELNNLGHPDNKEQTTDQPLAKDKVALLIGNMNYREHPKLKAPLVDVYELTNLLRQLDFKVVSLLDLTEYEMRNAVDEFLLLLDKGVYGLLYYAGHGYENFGNSFMVPVDAPNPYRSENCLCVQNILKLMQEKETGLNVFLLDMCRKRNDYDDTIPILDALKVTANIVFGYATCQGAEAFEIQHSGLANGIFMKFLKDRLLEDKKITVLLDEVAEDMGKCHLTKGKQALEIRSSLSEKRALTDPIQGTEYSAESLVRNLQWAKAHELPESMCLKFDCGVQIQLGFAAEFSNVMIIYTSIVYKPPEIIMCDAYVTDFPLDLDIDPKDANKGTPEETGSYLVSKDLPKHCLYTRLSSLQKLKEHLVFTVCLSYQYSGLEDTVEDKQEVNVGKPLIAKLDMHRGLGRKTCFQTCLMSNGPYQSSAATSGGAGHYHSLQDPFHGVYHSHPGNPSNVTPADSCHCSRTPDAFISSFAHHASCHFSRSNVPVETTDEIPFSFSDRLRISEK	2	0	0
PRCC (protein, UniProt Q92733 1-491, looked up) Proline-rich protein PRCC: MSLVAYASSDESEPDEAEPEPEEEEAVAPTSGPALGGLFASLPAPKGPALLPPPPQMLAPAFPPPLLLPPPTGDPRLQPPPPLPFGLGGFPPPPGVSPAEAAGVGEGLGLGLPSPRGPGLNLPPPIGGAGPPLGLPKPKKRKEPVKIAAPELHKGDSDSEEDEPTKKKTILQGSSEGTGLSALLPQPKNLTVKETNRLLLPHAFSRKPSDGSPDTKPSRLASKTKTSSLAPVVGTTTTTPSPSAIKAAAKSAALQVTKQITQEEDDSDEEVAPENFFSLPEKAEPPGVEPYPYPIPTVPEELPPGTEPEPAFQDDAANAPLEFKMAAGSSGAPWMPKPGDDYSYNQFSTYGDANAAGAYYQDYYSGGYYPAQDPALVPPQEIAPDASFIDDEAFKRLQGKRNRGREEINFVEIKGDDQLSGAQQWMTKSLTEEKTMKSFSKKKGEQPTGQQRRKHQITYLIHQAKERELELKNTWSENKLSRRQTQAKYGF	0	2	0
WASF2 (protein, UniProt Q9Y6W5 1-498, looked up) Actin-binding protein WASF2: MPLVTRNIEPRHLCRQTLPSVRSELECVTNITLANVIRQLGSLSKYAEDIFGELFTQANTFASRVSSLAERVDRLQVKVTQLDPKEEEVSLQGINTRKAFRSSTIQDQKLFDRNSLPVPVLETYNTCDTPPPLNNLTPYRDDGKEALKFYTDPSYFFDLWKEKMLQDTKDIMKEKRKHRKEKKDNPNRGNVNPRKIKTRKEEWEKMKMGQEFVESKEKLGTSGYPPTLVYQNGSIGCVENVDASSYPPPPQSDSASSPSPSFSEDNLPPPPAEFSYPVDNQRGSGLAGPKRSSVVSPSHPPPAPPLGSPPGPKPGFAPPPAPPPPPPPMIGIPPPPPPVGFGSPGTPPPPSPPSFPPHPDFAAPPPPPPPPAADYPTLPPPPLSQPTGGAPPPPPPPPPPGPPPPPFTGADGQPAIPPPLSDTTKPKSSLPAVSDARSDLLSAIRQGFQLRRVEEQREQEKRDVVGNDVATILSRRIAVEYSDSEDDSSEFDEDDWSD	0	2	0
PSD4 (protein, UniProt Q8NDX1 1-1056, looked up) PH and SEC7 domain-containing …: MMGDYRLPDHPQPMEILNLYLGDSLEPHPGECPRETCSHEDPPEPFEEQTWATDPPEPTRQNVPPWGSGVELTHLGSWVHQDGLEPCQEQTRATDPPESTRQDAPPWGSGVELTHLGSPSAQREHRQNTASPGSPVNSHLPGSPKQNRSTSTQVVFWAGILQAQMCVLDLEEELEKTEGLKAGLKCCLPTPPVDLPGDTGLHSSPPENEDSGEDSSEPEGEGQAWLREGTPDSSPQWGAEEESMFFSNPLFLASPCSENSASGECFSWGASDSHAGVRTGPESPATLEPPLPEDTVLWELESEPDLGDGAAISGHCTPPFPVPIYKPHSICWASVAAAEGAPAAPPGHGESEGDRLGPAPSAAPCVDEALTWESGCVGSDLGPAAHPVQPWASLSPEGWQRGGPFWPQVTLNSQDRDEREGGHPQESLPCTLAPCPWRSPASSPEPSSPESESRGPGPRPSPASSQEGSPQLQHHSSGILPKWTLDASQSSLLETDGEQPSSLKKKEAGEAPKPGEEVKSEGTARPAETGDVQPDIHLTSAEHENLRTPMNSSWLPGSPMPQAQSPEEGQRPPAGDKLANGVRNNKVAWNLASRLYRLEGFRKSEVAAYLQKNNDFSRAVAEEYLSFFQFGGQSLDRALRSFLQALVLSGETQERERILYQFSRRFHHCNPGIFPSVDSVHTLTCAIMLLNTDLHGQNIGKSMSCQEFITNLNGLRDGGNFPKELLKALYWSIRSEKLEWAVDEEDTARPEKAQPSLPAGKMSKPFLQLAQDPTVPTYKQGILARKMHQDADGKKTPWGKRGWKMFHTLLRGMVLYFLKQGEDHCLEGESLVGQMVDEPVGVHHSLATPATHYTKKPHVFQLRTADWRLYLFQAPTAKEMSSWIARINLAAATHSAPPFPAAVGSQRRFVRPILPVGPAQSSLEEQHRSHENCLDAAADDLLDLQRNLPERRGRGRELEEHRLRKEYLEYEKTRYETYVQLLVARLHCPSDALDLWEEQLGREAGGTREPKLSLKKSHSSPSLHQDEAPTTAKVKRNISERRTYRKIIPKRNRNQL	0	2	0
ZBED1 (protein, UniProt O96006 1-694, looked up) E3 SUMO-protein ligase ZBED1: MENKSLESSQTDLKLVAHPRAKSKVWKYFGFDTNAEGCILQWKKIYCRICMAQIAYSGNTSNLSYHLEKNHPEEFCEFVKSNTEQMREAFATAFSKLKPESSQQPGQDALAVKAGHGYDSKKQQELTAAVLGLICEGLYPASIVDEPTFKVLLKTADPRYELPSRKYISTKAIPEKYGAVREVILKELAEATWCGISTDMWRSENQNRAYVTLAAHFLGLGAPNCLSMGSRCLKTFEVPEENTAETITRVLYEVFIEWGISAKVFGATTNYGKDIVKACSLLDVAVHMPCLGHTFNAGIQQAFQLPKLGALLSRCRKLVEYFQQSAVAMYMLYEKQKQQNVAHCMLVSNRVSWWGSTLAMLQRLKEQQFVIAGVLVEDSNNHHLMLEASEWATIEGLVELLQPFKQVAEMLSASRYPTISMVKPLLHMLLNTTLNIKETDSKELSMAKEVIAKELSKTYQETPEIDMFLNVATFLDPRYKRLPFLSAFERQQVENRVVEEAKGLLDKVKDGGYRPAEDKIFPVPEEPPVKKLMRTSTPPPASVINNMLAEIFCQTGGVEDQEEWHAQVVEELSNFKSQKVLGLNEDPLKWWSDRLALFPLLPKVLQKYWCVTATRVAPERLFGSAANVVSAKRNRLAPAHVDEQVFLYENARSGAEAEPEDQDEGEWGLDQEQVFSLGDGVSGGFFGIRDSSFL	0	2	0

— patent US20220074941A1, “HSP90 COMBINATION THERAPY” (Sloan-Kettering Institute for Cancer Research, priority 2011, published 2022)
